Test [1] has as its target T1, GINS tetramer (Sld5, Psf1, Psf2, Psf3), S. cerevisiae (S. cerevisiae, UniProt Q03406 1-294; Q12488 1-208; P40359 1-213; Q12146 1-194).
T1 construct: Sld5, GINS subunit, S. cerevisiae; Psf1, GINS subunit, S. cerevisiae; Psf2, GINS subunit, S. cerevisiae; Psf3, GINS subunit, S. cerevisiae; pJL005 with TwinStrep-Psf3; also called tetrameric GINS complex; source: purified as previously described (Yeeles et al, 2015; Lewis et al, 2022); copies: + + +
T1 sequence (looked up) 1: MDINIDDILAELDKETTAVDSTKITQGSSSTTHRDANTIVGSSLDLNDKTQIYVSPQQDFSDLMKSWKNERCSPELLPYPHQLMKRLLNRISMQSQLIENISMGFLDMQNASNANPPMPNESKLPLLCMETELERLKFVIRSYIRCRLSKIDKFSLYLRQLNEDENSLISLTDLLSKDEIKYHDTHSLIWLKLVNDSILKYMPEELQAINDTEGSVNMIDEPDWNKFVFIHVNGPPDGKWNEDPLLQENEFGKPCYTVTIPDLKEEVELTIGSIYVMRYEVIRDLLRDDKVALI
T1 sequence (looked up) 2: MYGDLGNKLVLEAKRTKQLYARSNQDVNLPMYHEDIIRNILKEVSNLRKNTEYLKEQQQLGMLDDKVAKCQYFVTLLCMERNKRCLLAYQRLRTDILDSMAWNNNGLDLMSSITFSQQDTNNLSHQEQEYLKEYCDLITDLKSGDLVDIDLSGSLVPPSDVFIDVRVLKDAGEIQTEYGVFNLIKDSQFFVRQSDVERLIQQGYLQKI
T1 sequence (looked up) 3: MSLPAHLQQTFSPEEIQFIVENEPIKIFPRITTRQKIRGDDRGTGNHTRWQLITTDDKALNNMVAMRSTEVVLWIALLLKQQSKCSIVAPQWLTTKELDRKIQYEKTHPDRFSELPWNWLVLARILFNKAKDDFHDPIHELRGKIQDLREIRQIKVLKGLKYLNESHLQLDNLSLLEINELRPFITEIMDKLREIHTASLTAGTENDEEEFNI
T1 sequence (looked up) 4: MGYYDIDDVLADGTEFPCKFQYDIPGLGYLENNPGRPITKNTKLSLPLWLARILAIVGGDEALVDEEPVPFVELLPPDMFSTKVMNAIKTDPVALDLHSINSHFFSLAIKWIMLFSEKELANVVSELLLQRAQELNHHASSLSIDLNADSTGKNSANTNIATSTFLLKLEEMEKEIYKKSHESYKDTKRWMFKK
Briefly: co-IP; purified proteins mixed: 10 nM FLAG-Rrm3 with 15 nM GINS, 10 min on ice; anti-FLAG M2 magnetic beads; 25 mM Hepes-KOH pH 7.6, 200 mM KOAc, 0.02% NP-40-S, 0.1 mg/mL BSA, 1 mM DTT, 10 mM Mg(OAc)2; immunoblotting. The settings on record: both partners purified. A general note: In western blotting, separated proteins are transferred to a membrane and probed.

Test [2] concerns the target T2, DNA polymerase ε (Pol2, Dpb2, Dpb3, Dpb4), S. cerevisiae (S. cerevisiae, UniProt P21951 1-2222; P24482 1-689; P27344 1-201; Q04603 1-196).
T2 construct: Pol2, catalytic subunit of DNA polymerase ε, S. cerevisiae; Dpb2, second largest subunit of DNA polymerase ε, S. cerevisiae; Dpb3, subunit of DNA polymerase ε, S. cerevisiae; Dpb4, subunit of DNA polymerase ε, S. cerevisiae (DPB4-TEV-CBP); also called Polε; Pol ε; source: S. cerevisiae strain yAJ2, purified as previously described (Yeeles et al, 2015); copies: + + +
The test can be described thus: co-IP; purified proteins mixed: 10 nM FLAG-Rrm3 with 15 nM Pol ε, 10 min on ice; anti-FLAG M2 magnetic beads; 25 mM Hepes-KOH pH 7.6, 400 mM KOAc, 0.02% NP-40-S, 0.1 mg/mL BSA, 1 mM DTT, 10 mM Mg(OAc)2; immunoblotting. The following applies: both partners purified.

The text below walks through data of publication PMC11405395 (The EMBO Journal, 2024).

T2 sequence (P21951 whole entry, chain 1 of 4): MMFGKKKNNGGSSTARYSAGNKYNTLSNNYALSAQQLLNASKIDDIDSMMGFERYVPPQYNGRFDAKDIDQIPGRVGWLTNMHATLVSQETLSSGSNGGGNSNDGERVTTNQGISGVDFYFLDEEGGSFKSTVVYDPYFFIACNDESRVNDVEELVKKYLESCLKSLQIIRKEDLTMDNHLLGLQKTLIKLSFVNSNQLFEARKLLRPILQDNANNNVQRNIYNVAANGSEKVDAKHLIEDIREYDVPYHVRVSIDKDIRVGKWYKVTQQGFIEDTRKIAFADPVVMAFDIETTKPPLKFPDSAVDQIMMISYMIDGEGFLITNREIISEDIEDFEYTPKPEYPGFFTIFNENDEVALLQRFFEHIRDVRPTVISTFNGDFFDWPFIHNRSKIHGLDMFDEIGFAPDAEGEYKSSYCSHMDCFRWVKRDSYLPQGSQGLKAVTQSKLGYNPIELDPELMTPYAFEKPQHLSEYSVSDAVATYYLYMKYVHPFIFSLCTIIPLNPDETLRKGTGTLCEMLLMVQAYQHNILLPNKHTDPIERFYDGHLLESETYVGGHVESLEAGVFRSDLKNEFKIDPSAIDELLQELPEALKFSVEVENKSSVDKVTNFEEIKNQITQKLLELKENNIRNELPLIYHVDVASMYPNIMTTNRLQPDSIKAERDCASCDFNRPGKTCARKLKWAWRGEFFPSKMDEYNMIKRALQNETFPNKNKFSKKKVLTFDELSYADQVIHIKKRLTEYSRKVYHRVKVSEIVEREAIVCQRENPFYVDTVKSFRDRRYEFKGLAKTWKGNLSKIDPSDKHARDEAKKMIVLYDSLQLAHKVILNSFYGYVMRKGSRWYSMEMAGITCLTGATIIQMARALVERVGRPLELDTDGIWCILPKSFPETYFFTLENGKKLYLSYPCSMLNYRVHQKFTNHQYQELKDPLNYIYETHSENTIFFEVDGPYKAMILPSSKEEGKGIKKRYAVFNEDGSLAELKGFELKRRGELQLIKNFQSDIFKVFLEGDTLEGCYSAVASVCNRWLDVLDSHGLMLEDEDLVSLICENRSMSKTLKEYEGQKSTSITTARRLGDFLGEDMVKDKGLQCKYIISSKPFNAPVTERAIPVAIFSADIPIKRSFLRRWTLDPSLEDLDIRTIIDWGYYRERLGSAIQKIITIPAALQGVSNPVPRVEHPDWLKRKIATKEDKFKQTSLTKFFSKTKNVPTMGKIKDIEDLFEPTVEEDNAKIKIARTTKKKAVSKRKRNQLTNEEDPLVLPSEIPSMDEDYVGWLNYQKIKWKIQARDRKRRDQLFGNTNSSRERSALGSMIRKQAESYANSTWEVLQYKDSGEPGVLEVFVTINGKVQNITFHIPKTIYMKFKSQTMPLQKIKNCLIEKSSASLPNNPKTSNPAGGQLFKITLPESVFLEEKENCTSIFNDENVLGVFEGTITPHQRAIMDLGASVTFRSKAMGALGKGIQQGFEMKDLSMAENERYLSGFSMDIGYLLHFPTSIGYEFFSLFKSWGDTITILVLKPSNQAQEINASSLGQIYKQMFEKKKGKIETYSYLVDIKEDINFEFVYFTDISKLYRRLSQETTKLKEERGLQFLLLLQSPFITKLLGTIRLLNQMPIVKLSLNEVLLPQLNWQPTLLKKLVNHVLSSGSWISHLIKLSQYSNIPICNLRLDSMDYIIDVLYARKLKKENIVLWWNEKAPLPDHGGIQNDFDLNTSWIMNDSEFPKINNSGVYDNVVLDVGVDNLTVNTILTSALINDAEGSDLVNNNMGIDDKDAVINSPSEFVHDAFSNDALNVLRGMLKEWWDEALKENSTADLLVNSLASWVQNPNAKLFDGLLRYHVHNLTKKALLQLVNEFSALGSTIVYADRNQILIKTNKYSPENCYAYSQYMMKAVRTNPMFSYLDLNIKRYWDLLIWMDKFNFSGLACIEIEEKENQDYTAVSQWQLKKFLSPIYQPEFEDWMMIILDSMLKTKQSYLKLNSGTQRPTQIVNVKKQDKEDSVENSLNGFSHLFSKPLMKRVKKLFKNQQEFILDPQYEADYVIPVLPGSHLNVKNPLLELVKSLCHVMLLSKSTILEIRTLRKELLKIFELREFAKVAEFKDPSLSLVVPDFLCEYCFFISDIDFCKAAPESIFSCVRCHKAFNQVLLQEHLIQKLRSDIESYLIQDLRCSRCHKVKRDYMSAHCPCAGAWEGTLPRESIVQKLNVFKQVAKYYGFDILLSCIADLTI
T2 sequence (P24482 whole entry, chain 2 of 4): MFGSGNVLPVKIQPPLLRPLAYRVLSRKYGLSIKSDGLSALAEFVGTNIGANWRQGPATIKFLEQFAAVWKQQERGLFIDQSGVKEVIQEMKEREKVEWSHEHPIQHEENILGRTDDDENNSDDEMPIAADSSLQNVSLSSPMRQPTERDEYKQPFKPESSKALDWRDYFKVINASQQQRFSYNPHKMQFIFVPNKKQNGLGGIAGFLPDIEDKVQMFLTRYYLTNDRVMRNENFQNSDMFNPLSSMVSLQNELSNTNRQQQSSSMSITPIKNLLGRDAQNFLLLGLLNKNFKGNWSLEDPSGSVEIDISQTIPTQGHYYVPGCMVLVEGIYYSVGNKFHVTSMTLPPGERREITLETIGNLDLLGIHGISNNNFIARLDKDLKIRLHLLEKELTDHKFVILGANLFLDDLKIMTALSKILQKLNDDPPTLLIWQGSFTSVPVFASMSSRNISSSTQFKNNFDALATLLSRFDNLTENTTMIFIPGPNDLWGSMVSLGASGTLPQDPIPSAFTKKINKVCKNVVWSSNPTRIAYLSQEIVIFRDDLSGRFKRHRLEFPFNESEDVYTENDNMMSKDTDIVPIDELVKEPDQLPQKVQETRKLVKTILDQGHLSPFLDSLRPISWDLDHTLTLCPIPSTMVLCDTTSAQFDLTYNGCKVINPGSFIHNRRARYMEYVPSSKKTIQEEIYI
T2 sequence (P27344 whole entry, chain 3 of 4): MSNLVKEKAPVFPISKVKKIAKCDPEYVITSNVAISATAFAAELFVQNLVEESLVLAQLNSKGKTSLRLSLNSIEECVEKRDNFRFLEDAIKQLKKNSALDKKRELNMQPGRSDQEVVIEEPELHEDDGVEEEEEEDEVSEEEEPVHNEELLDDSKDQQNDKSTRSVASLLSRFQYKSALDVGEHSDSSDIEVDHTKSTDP
T2 sequence (Q04603 whole entry, chain 4 of 4): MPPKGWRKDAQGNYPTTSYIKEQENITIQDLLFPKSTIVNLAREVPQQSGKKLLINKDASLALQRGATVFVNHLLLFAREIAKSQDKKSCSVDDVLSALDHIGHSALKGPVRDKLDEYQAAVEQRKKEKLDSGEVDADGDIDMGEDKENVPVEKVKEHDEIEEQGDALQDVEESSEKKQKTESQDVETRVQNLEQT

B1: Rrm3-6A (Rrm3 F89A, Q93A, F96A, D99A, E104A, L108A) (enzyme, S. cerevisiae, UniProt P38766 1-723, looked up)
chain: MFRSHASGNKKQWSKRSSNGSTPAASASGSHAYRQQTLSSFFMGCGKKSAAASKNSTTIIDLESGDEGNRNITAPPRPRLIRNNSSSLASQSAGSAGDADPDAAFKKAVDVPRLNSYKKSSRSLSMTSSLHKTASASTTQKTYHFDEDETLREVTSVKSNSRQLSFTSTINIEDSSMKLSTDSERPAKRSKPSMEFQGLKLTVPKKIKPLLRKTVSNMDSMNHRSASSPVVLTMEQERVVNLIVKKRTNVFYTGSAGTGKSVILQTIIRQLSSLYGKESIAITASTGLAAVTIGGSTLHKWSGIGIGNKTIDQLVKKIQSQKDLLAAWRYTKVLIIDEISMVDGNLLDKLEQIARRIRKNDDPFGGIQLVLTGDFFQLPPVAKKDEHNVVKFCFESEMWKRCIQKTILLTKVFRQQDNKLIDILNAIRYGELTVDIAKTIRNLNRDIDYADGIAPTELYATRREVELSNVKKLQSLPGDLYEFKAVDNAPERYQAILDSSLMVEKVVALKEDAQVMMLKNKPDVELVNGSLGKVLFFVTESLVVKMKEIYKIVDDEVVMDMRLVSRVIGNPLLKESKEFRQDLNARPLARLERLKILINYAVKISPHKEKFPYVRWTVGKNKYIHELMVPERFPIDIPRENVGLERTQIPLMLCWALSIHKAQGQTIQRLKVDLRRIFEAGQVYVALSRAVTMDTLQVLNFDPGKIRTNERVKDFYKRLETLK
notes: Plasmid pOO16; also called 3FLAG-TEV-RRM3-6A; source: S. cerevisiae strain yOO8, purified (anti-FLAG M2 resin, HiTrap heparin); not shown: 3FLAG, N-terminal, kept
Regarding B1, the binding result in test [1] was “binds”.

B2: Rrm3-CR (Rrm3 F89D, Q93A, F96K, D99K, E104K) (enzyme, S. cerevisiae, UniProt P38766 1-723, looked up)
chain: MFRSHASGNKKQWSKRSSNGSTPAASASGSHAYRQQTLSSFFMGCGKKSAAASKNSTTIIDLESGDEGNRNITAPPRPRLIRNNSSSLDSQSAGSKGDKDPDAKFKKLVDVPRLNSYKKSSRSLSMTSSLHKTASASTTQKTYHFDEDETLREVTSVKSNSRQLSFTSTINIEDSSMKLSTDSERPAKRSKPSMEFQGLKLTVPKKIKPLLRKTVSNMDSMNHRSASSPVVLTMEQERVVNLIVKKRTNVFYTGSAGTGKSVILQTIIRQLSSLYGKESIAITASTGLAAVTIGGSTLHKWSGIGIGNKTIDQLVKKIQSQKDLLAAWRYTKVLIIDEISMVDGNLLDKLEQIARRIRKNDDPFGGIQLVLTGDFFQLPPVAKKDEHNVVKFCFESEMWKRCIQKTILLTKVFRQQDNKLIDILNAIRYGELTVDIAKTIRNLNRDIDYADGIAPTELYATRREVELSNVKKLQSLPGDLYEFKAVDNAPERYQAILDSSLMVEKVVALKEDAQVMMLKNKPDVELVNGSLGKVLFFVTESLVVKMKEIYKIVDDEVVMDMRLVSRVIGNPLLKESKEFRQDLNARPLARLERLKILINYAVKISPHKEKFPYVRWTVGKNKYIHELMVPERFPIDIPRENVGLERTQIPLMLCWALSIHKAQGQTIQRLKVDLRRIFEAGQVYVALSRAVTMDTLQVLNFDPGKIRTNERVKDFYKRLETLK
notes: Plasmid pOO15; also called 3FLAG-TEV-RRM3-CR; source: S. cerevisiae strain yOO9, purified (anti-FLAG M2 resin, HiTrap heparin); not shown: 3FLAG, N-terminal, kept
For B2, the binding result in test [1] is listed as “binds”.

B3: Rrm3Δ86-110 (enzyme, S. cerevisiae, UniProt P38766 1-723, looked up)
chain: MFRSHASGNKKQWSKRSSNGSTPAASASGSHAYRQQTLSSFFMGCGKKSAAASKNSTTIIDLESGDEGNRNITAPPRPRLIRNNSVPRLNSYKKSSRSLSMTSSLHKTASASTTQKTYHFDEDETLREVTSVKSNSRQLSFTSTINIEDSSMKLSTDSERPAKRSKPSMEFQGLKLTVPKKIKPLLRKTVSNMDSMNHRSASSPVVLTMEQERVVNLIVKKRTNVFYTGSAGTGKSVILQTIIRQLSSLYGKESIAITASTGLAAVTIGGSTLHKWSGIGIGNKTIDQLVKKIQSQKDLLAAWRYTKVLIIDEISMVDGNLLDKLEQIARRIRKNDDPFGGIQLVLTGDFFQLPPVAKKDEHNVVKFCFESEMWKRCIQKTILLTKVFRQQDNKLIDILNAIRYGELTVDIAKTIRNLNRDIDYADGIAPTELYATRREVELSNVKKLQSLPGDLYEFKAVDNAPERYQAILDSSLMVEKVVALKEDAQVMMLKNKPDVELVNGSLGKVLFFVTESLVVKMKEIYKIVDDEVVMDMRLVSRVIGNPLLKESKEFRQDLNARPLARLERLKILINYAVKISPHKEKFPYVRWTVGKNKYIHELMVPERFPIDIPRENVGLERTQIPLMLCWALSIHKAQGQTIQRLKVDLRRIFEAGQVYVALSRAVTMDTLQVLNFDPGKIRTNERVKDFYKRLETLK
notes: Plasmid pOO14; also called 3FLAG-TEV RRM3-∆86-110; source: S. cerevisiae strain yOO7, purified (anti-FLAG M2 resin, HiTrap heparin); not shown: 3FLAG, N-terminal, kept
As to B3, the binding result in test [1] is on record as “binds”.

B4: Rrm3Δ111-130 (enzyme, S. cerevisiae, UniProt P38766 1-723, looked up)
chain: MFRSHASGNKKQWSKRSSNGSTPAASASGSHAYRQQTLSSFFMGCGKKSAAASKNSTTIIDLESGDEGNRNITAPPRPRLIRNNSSSLFSQSQGSFGDDDPDAEFKKLVDHKTASASTTQKTYHFDEDETLREVTSVKSNSRQLSFTSTINIEDSSMKLSTDSERPAKRSKPSMEFQGLKLTVPKKIKPLLRKTVSNMDSMNHRSASSPVVLTMEQERVVNLIVKKRTNVFYTGSAGTGKSVILQTIIRQLSSLYGKESIAITASTGLAAVTIGGSTLHKWSGIGIGNKTIDQLVKKIQSQKDLLAAWRYTKVLIIDEISMVDGNLLDKLEQIARRIRKNDDPFGGIQLVLTGDFFQLPPVAKKDEHNVVKFCFESEMWKRCIQKTILLTKVFRQQDNKLIDILNAIRYGELTVDIAKTIRNLNRDIDYADGIAPTELYATRREVELSNVKKLQSLPGDLYEFKAVDNAPERYQAILDSSLMVEKVVALKEDAQVMMLKNKPDVELVNGSLGKVLFFVTESLVVKMKEIYKIVDDEVVMDMRLVSRVIGNPLLKESKEFRQDLNARPLARLERLKILINYAVKISPHKEKFPYVRWTVGKNKYIHELMVPERFPIDIPRENVGLERTQIPLMLCWALSIHKAQGQTIQRLKVDLRRIFEAGQVYVALSRAVTMDTLQVLNFDPGKIRTNERVKDFYKRLETLK
notes: Plasmid pOO10; source: S. cerevisiae strain yOO5, purified (anti-FLAG M2 resin, HiTrap heparin); not shown: 3FLAG, N-terminal, kept
As to B4, the binding result in test [2] was “binds”.
